Measured values from patent US20240018528A1, “A TUNABLE PHOSPHORYLATION-BASED FEEDBACK CONTROLLER OF MAMMALIAN GENE EXPRESSION” (Massachusetts Institute of Technology, priority 2020, published 2024).

Tested on: OmpR-VP64
Test: Screen of EnvZ variants for kinase and phosphatase activity on OmpR-VP64-driven output
Type: cell-based
Details: FIG. 3B
Excerpt: The well-studied EnvZ-OmpR system was used to develop feedback controllers of the present disclosure, using separate kinase and phosphatase variants of EnvZ, and an OmpR-VP64 fusion protein as an activator for promoting transcription of a reporter protein. Kinase and phosphatase variants of the HK EnvZ through mutation and/or truncation (FIG. 3A). […] However, the phosphatase EnvZ activity was weak compared to the EnvZm2 kinase. To create a stronger phosphatase, a DHp domain of EnvZ was fused to a leucine zipper GCN4 domain, with GCN4 at the N-terminus and EnvZm2 at the C-terminus, to lock the DHp domain of an HK into fixed conformations (FIG. 3C). […]
The phosphatase regulator was further modified to allow tunability by use of a small molecule. […] Expression of both proteins from the same nucleic acid and translation from the same mRNA, such as by separating coding sequences by a 2A motif or open reading frames IRES cassette, ensures maximal coupling of transcription and translation of the two proteins. […]
For quantifying the effects of EnvZ variants and perturbations, fold-changes were calculated by dividing the median output level of each sample by that of the equivalent sample in the absence of the EnvZ variant or perturbation. […]

B1: EnvZm2: kinase+/phosphatase− mutant of EnvZ containing a T247A mutation (SEQ ID NO: 3) (protein)
chain: MRRLRFSPRSSFARTLLLIVTLLFASLVTTYLVVLNFAILPSLQQFNKVLAYEVRMLMTDKLQLEDGTQLVVPPAFRREIYRELGISLYSNEAAEEAGLRWAQHYEFLSHQMAQQLGGPTEVRVEVNKSSPVVWLKTWLSPNIWVRVPLTEIHQGDFSPLFRYTLAIMLLAIGGAWLFIRIQNRPLVDLEHAALQVGKGIIPPPLREYGASEVRSVTRAFNHMAAGVKQLADDRTLLMAGVSHDLRAPLTRIRLATEMMSEQDGYLAESINKDIEECNAIIEQFIDYLRTGQEMPMEMADLNAVLGEVIAAESGYEREIETALYPGSIEVKMHPLSIKRAVANMVVNAARYGNGWIKVSSGTEPNRAWFQVEDDGPGIAPEQRKHLFQPFVRGDSARTISGTGLGLAIVQRIVDNHNGMLELGTSERGGLSIRAWLPVPVTRAQGTTKEG
kinase activity (phosphorylation of OmpR): particularly effective in phosphorylating OmpR
